Laboratory results taken from publication PMC11441981.

B1: GST-tagged CG9590 (Drosophila FAM114A) [Drosophila] / Vap33 [Drosophila (endogenous in S2 cells)] (parent)
chain 1: MAKNPKKEEDGGNDWAQSDEDDNWDDWGDDDDKFVHVEKEQQPQEKVSSRNDAKGTAENQEKLETPRISAPATASATSSSWGLWGGKLSSVLTTATEGLGTITTQVNQGLNQIIGVPDPEELARINVAEKAEKAAKAPPEENVDDEKESSAAFGLDFVTNLGSKVLNTGLDTLEGIGKKTMTILQDNDPKLMNKRKLLGLEANSPNLSAVLLEAKKEADQMEQSLQQLQLKRQKAQLRFEILFENYCGLVHFEALEILSKESRLKLDTLLDAVSGNARAELQETINEVKELIELEDLDVESEGDYEAEELSERLAATIKDAELGIQFDDIANHWTQSLSWLTSEEATAADLEQAYAKSIHALSEACALEMCKLHKIAELLLVKPHHSTANEVDGVVNLCQQFNGHLQGLSHRFAAVLSGKSETEESKGRVSTFFSEMLSAVQFIEKAYKLFTPILQMGAV
chain 2: MSKSLFDLPLTIEPEHELRFVGPFTRPVVTIMTLRNNSALPLVFKIKTTAPKRYCVRPNIGKIIPFRSTQVEICLQPFVYDQQEKNKHKFMVQSVLAPMDADLSDLNKLWKDLEPEQLMDAKLKCVFEMPTAEANAENTSGGGAVGGGTGAAGGGSAGANTSSASAEALESKPKLSSEDKFKPSNLLETSESLDLLSGEIKALRECNIELRRENLHLKDQITRFRSSPAVKQVNEPYAPVLAEKQIPVFYIAVAIAAAIVSLLLGKFFL

Variants of: B1
Assay: GST pull-down from S2 cell lysate with mass spectrometry (volcano plot of spectral intensities)
Conditions: three biological replicates, read off a plot

| screen value [log2] | Variant |
| --- | --- |
| 5.2 | chain 1 MAKNPKKEEDGGNDWAQSDEDDNADDAGDDDDKFVHVEKEQQPQEKVSSRNDAKGTAENQEKLETPRISAPATASATSSSWGLWGGKLSSVLTTATEGLGTITTQVNQGLNQIIGVPDPEELARINVAEKAEKAAKAPPEENVDDEKESSAAFGLDFVTNLGSKVLNTGLDTLEGIGKKTMTILQDNDPKLMNKRKLLGLEANSPNLSAVLLEAKKEADQMEQSLQQLQLKRQKAQLRFEILFENYCGLVHFEALEILSKESRLKLDTLLDAVSGNARAELQETINEVKELIELEDLDVESEGDYEAEELSERLAATIKDAELGIQFDDIANHWTQSLSWLTSEEATAADLEQAYAKSIHALSEACALEMCKLHKIAELLLVKPHHSTANEVDGVVNLCQQFNGHLQGLSHRFAAVLSGKSETEESKGRVSTFFSEMLSAVQFIEKAYKLFTPILQMGAV [chain 1 W24A W27A] |
